Results taken from US20150259426A1 (Novartis, published 2015).

T1: hGITR (human, UniProt Q9Y5U5)
T1 construct: extracellular domain, E. coli lysate captured on a His capture plate; Target named only on the sheet; the construct is not described in the text
T1 sequence (extracellular domain, looked up): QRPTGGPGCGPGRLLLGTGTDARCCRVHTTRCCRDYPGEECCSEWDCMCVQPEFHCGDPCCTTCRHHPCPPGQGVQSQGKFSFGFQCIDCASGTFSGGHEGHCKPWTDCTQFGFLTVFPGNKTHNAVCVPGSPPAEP

T2: TNFR1 extracellular domain (TNFRSF1A, Leu34-Thr211) (UniProt P19438 34-211)
T2 construct: range 34-211; ECD cloned into pBadThioTopo; E. coli lysate on His capture plates
T2 sequence (looked up): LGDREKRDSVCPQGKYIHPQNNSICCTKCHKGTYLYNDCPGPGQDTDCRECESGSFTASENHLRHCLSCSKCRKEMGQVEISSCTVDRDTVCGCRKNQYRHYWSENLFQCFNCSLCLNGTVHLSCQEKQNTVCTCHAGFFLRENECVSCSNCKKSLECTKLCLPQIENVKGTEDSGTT

T3: OX40 extracellular domain (TNFRSF4, Gly33-Gly212) (UniProt P43489 33-212)
T3 construct: ECD cloned into pBadThioTopo; E. coli lysate on His capture plates
T3 sequence (looked up): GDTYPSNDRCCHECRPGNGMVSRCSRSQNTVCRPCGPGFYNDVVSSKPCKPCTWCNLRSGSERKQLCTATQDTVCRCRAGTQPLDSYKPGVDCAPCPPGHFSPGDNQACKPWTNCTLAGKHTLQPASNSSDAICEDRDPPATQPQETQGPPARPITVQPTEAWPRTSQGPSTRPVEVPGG

T4: FAS extracellular domain (TNFRSF6, Ser20-Gly175) (UniProt P25445 20-175)
T4 construct: ECD cloned into pBadThioTopo; E. coli lysate on His capture plates
T4 sequence (looked up): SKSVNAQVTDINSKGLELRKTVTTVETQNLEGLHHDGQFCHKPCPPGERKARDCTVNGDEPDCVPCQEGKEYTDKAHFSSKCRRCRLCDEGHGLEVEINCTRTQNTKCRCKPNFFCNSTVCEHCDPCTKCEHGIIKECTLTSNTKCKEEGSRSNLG

T5: DcR3 (TNFRSF6B, Val27-Ala176) (UniProt O95407 27-176)
T5 construct: range 27-176; ECD cloned into pBadThioTopo; E. coli lysate on His capture plates
T5 sequence (looked up): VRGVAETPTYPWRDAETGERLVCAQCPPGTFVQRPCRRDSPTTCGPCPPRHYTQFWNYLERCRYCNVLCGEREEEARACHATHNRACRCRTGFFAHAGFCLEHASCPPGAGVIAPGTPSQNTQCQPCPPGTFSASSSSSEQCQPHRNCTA

T6: DcR2 extracellular domain (TNFRSF10D, Thr57-Thr198) (UniProt Q9UBN6 57-198)
T6 construct: range 57-198; ECD cloned into pBadThioTopo; E. coli lysate on His capture plates
T6 sequence (looked up): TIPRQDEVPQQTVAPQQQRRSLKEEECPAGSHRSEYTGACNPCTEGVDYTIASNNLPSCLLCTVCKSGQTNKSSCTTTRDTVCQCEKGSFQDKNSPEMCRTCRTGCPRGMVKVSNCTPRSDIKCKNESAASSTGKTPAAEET

T7: OPG (TNFRSF11B, Lys17-Ile197) (UniProt O00300 17-197)
T7 construct: range 17-197; ECD cloned into pBadThioTopo; E. coli lysate on His capture plates
T7 sequence (looked up): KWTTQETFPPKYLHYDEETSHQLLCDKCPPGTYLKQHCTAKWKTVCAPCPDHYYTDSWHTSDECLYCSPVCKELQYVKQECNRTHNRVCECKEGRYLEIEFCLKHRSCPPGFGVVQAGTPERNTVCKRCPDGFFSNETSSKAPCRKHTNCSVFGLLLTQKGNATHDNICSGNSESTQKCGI

B1: 10F1 tri (trivalent anti-DR5 NB construct) (VHH, not shown: small tags and cut ends)
chain: EVQLVESGGGLVQPGGSLRLSCAASGFTFSRYWMYWVRQAPGKGLEWVSAINSGGGDTYYRDSVRGRFTISRDNFKNTLYLQMNSLKSEDTAVYYCAKAEGPPTFSLIRTMTVDPGAQGTQVTVSSGGGGSGGGGSGGGGSGGGGSGGGGSGGGGSGGGGSEVQLVESGGGLVQPGGSLRLSCAASGFTFSRYWMYWVRQAPGKGLEWVSAINSGGGDTYYRDSVRGRFTISRDNFKNTLYLQMNSLKSEDTAVYYCAKAEGPPTFSLIRTMTVDPGAQGTQVTVSSGGGGSGGGGSGGGGSGGGGSGGGGSGGGGSGGGGSEVQLVESGGGLVQPGGSLRLSCAASGFTFSRYWMYWVRQAPGKGLEWVSAINSGGGDTYYRDSVRGRFTISRDNFKNTLYLQMNSLKSEDTAVYYCAKAEGPPTFSLIRTMTVDPGAQGTQVTVSS
B2: 4E6 tri (trivalent anti-DR5 NB construct) (VHH)
chain: EVQLVESGGGSVQAGDSLRLSCAASGRTFGSIRVGWFRQTPGKEREFVAAINRNDGTTYYADSVKGRFTISRDNAKNTVYMQMASLKPEDTAVYYCAAGLQYNRSADRVPVGAVYWGQGTQVTVSSGGGGSGGGGSGGGGSGGGGSGGGGSGGGGSGGGGSEVQLVESGGGSVQAGDSLRLSCAASGRTFGSIRVGWFRQTPGKEREFVAAINRNDGTTYYADSVKGRFTISRDNAKNTVYMQMASLKPEDTAVYYCAAGLQYNRSADRVPVGAVYWGQGTQVTVSSGGGGSGGGGSGGGGSGGGGSGGGGSGGGGSGGGGSEVQLVESGGGSVQAGDSLRLSCAASGRTFGSIRVGWFRQTPGKEREFVAAINRNDGTTYYADSVKGRFTISRDNAKNTVYMQMASLKPEDTAVYYCAAGLQYNRSADRVPVGAVYWGQGTQVTVSS
notes: three VHH units in one chain joined by GlySer linkers; not shown: CMYC-HIS6 tag

Key:
[1] = target: T8, cell-bound human DR5 (Colo205 and other human cell lines) (human, UniProt O14763 56-440); experiment: cell-based or functional assay
[2] = target: T8, cell-bound human DR5 (Colo205 and other …); experiment: cell-based or functional assay; remark: listed apart in the source
[3] = target: T1, hGITR; experiment: ELISA, receptor ECD from E. coli lysate on His capture plate;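 further: binding specificity screen across TNF receptor superfamily ectodomains, anti-V5 detection as expression reference, primary antibody incubation 1 h at room temperature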
[4] = target: T2, TNFR1 extracellular domain (TNFRSF1A, …); experiment: as above
[5] = target: T9, TNFR3 extracellular domain (TNFRSF3, Pro30-Thr224) (UniProt P36941 30-224); experiment: as above
T9 construct: range 30-224; ECD cloned into pBadThioTopo; E. coli lysate on His capture plates

[6] = target: T3, OX40 extracellular domain (TNFRSF4, …); experiment: as above
[7] = target: T10, CD40 extracellular domain (TNFRSF5, Val18-Leu192) (UniProt P25942 18-192); experiment: as above
T10 construct: range 18-192; ECD cloned into pBadThioTopo; E. coli lysate on His capture plates

[8] = target: T4, FAS extracellular domain (TNFRSF6, …); experiment: as above
[9] = target: T5, DcR3 (TNFRSF6B, Val27-Ala176); experiment: as above
[10] = target: T11, CD27 extracellular domain (TNFRSF7, Thr21-Ser187) (UniProt P26842 21-187); experiment: as above
T11 construct: range 21-187; ECD cloned into pBadThioTopo; E. coli lysate on His capture plates

[11] = target: T12, CD137 extracellular domain (TNFRSF9, Glu19-Ile188) (UniProt Q07011 19-188); experiment: as above
T12 construct: range 19-188; ECD cloned into pBadThioTopo; E. coli lysate on His capture plates

[12] = target: T6, DcR2 extracellular domain (TNFRSF10D, …); experiment: as above
[13] = target: T7, OPG (TNFRSF11B, Lys17-Ile197); experiment: as above
[14] = target: T13, BAFFR extracellular domain (TNFRSF13C, Met1-Gly64) (UniProt Q96RJ3 1-64); experiment: as above
T13 construct: range 1-64; ECD cloned into pBadThioTopo; E. coli lysate on His capture plates

[15] = target: cynomolgus DR5-Fc fusion protein (cyno DR5 amino acids 56 to 213 fused with human IgG1 Fc) (cynomolgus; human); experiment: SPR (Biacore), CM5 chip coated with cynomolgus DR5-Fc, 1 to 100 nM NB construct

T12 sequence (Q07011 19-188 limits assumed): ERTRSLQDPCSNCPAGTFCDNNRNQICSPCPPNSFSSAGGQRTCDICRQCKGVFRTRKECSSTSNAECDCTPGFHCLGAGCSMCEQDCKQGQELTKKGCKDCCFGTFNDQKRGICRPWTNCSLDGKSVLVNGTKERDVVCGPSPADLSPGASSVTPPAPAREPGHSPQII
T10 sequence (P25942 18-192 limits assumed): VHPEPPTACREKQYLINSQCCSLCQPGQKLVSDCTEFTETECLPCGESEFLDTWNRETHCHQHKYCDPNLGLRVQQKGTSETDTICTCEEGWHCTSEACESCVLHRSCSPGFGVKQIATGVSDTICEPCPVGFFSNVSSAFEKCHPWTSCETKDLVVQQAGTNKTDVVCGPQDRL
T13 sequence (Q96RJ3 1-64 limits assumed): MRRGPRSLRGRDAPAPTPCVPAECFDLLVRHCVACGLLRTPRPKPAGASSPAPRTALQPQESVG
T9 sequence (P36941 30-224 limits assumed): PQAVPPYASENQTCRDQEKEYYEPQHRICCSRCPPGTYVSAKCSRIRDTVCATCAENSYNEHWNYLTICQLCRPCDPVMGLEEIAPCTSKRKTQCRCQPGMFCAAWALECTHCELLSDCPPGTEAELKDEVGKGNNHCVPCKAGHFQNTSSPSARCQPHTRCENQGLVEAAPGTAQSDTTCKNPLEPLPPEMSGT
T11 sequence (P26842 21-187 limits assumed): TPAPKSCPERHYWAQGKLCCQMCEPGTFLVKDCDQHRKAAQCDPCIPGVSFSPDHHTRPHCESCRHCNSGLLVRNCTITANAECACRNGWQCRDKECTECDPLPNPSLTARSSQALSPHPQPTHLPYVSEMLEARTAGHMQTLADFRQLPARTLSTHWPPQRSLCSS

Binder | IC50, cell survival, Colo205 [1] | IC50, cell survival, A549 [2] | IC50, cell survival, ARPE-19 [2] | IC50, cell survival, H226 [2] | IC50, cell survival, H2052 [2] | IC50, cell survival, H2122 [2] | IC50, cell survival, Huvec [2] | IC50, cell survival, IMR-90 [2] | IC50, cell survival, Jurkat [2] | IC50, cell survival, M30 [2] | IC50, cell survival, MiaPaCa-2 [2] | IC50, cell survival, Molt4 [2] | IC50, cell survival, Panc-1 [2] | binding result [3] | binding result [4] | binding result [5] | binding result [6] | binding result [7] | binding result [8] | binding result [9] | further results
B1 | 0.0407 nM | ≥ 20 nM | ≥ 20 nM | 0.02 nM | 0.013 nM | 0.003 nM | ≥ 20 nM | ≥ 20 nM | ≥ 20 nM | ≥ 20 nM | ≥ 20 nM | ≥ 20 nM | ≥ 20 nM | no binding (tested: not stated) | no binding (tested: not stated) | no binding (tested: not stated) | no binding (tested: not stated) | no binding (tested: not stated) | no binding (tested: not stated) | no binding (tested: not stated) | binding result [10]: no binding (tested: not stated); binding result [11]: no binding (tested: not stated); binding result [12]: no binding (tested: not stated); binding result [13]: no binding (tested: not stated); binding result [14]: no binding (tested: not stated); Kd [15]: < 0.6 nM
B2 | 0.0379 nM | ≥ 20 nM | ≥ 20 nM | 0.02 nM | 0.006 nM | 0.002 nM | ≥ 20 nM | ≥ 20 nM | ≥ 20 nM | ≥ 20 nM | 0.023 nM | ≥ 20 nM | ≥ 20 nM | no binding (tested: not stated) | no binding (tested: not stated) | no binding (tested: not stated) | no binding (tested: not stated) | no binding (tested: not stated) | no binding (tested: not stated) | no binding (tested: not stated) | binding result [10]: no binding (tested: not stated); binding result [11]: no binding (tested: not stated); binding result [12]: no binding (tested: not stated); binding result [13]: no binding (tested: not stated); binding result [14]: no binding (tested: not stated); Kd [15]: < 0.09 nM
